According to article PMC2849977 (Nature structural & molecular biology, 2009):

Molecular target: PHF8 (Homo sapiens, UniProt Q9UPP1)
Experiment: PHF8 demethylation time course
Assay type: biochemical
Conditions: equimolar ratio added

Chain of PHF8 (Q9UPP1 37-483): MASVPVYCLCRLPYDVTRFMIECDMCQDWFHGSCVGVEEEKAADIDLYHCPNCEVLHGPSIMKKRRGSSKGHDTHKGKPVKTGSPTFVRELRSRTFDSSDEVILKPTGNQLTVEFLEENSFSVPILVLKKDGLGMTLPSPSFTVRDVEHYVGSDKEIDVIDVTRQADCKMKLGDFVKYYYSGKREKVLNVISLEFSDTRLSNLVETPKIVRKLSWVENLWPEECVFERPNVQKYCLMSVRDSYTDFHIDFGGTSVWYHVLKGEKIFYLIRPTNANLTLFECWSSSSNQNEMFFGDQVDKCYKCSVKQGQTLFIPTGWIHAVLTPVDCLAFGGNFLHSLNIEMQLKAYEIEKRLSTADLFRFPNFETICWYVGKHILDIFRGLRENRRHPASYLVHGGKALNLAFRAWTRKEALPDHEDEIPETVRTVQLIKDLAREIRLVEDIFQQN

Substance	effect of added peptide in trans on demethylation of H3_1–24K9me2 by PHF8
H3_1–12K4me3: H3K4me3 modification in a short H3_1–12 peptide	inhibitory effect
H3_1–21K4me3: H3K4me3 modification in a long H3_1–21 peptide	inhibitory effect
